Data reported in the supplement of paper PMC9170038.

System: MS2 coat protein
Assay: apparent KD of MS2 coat protein; designed switch direction (-1 OFF switch, 1 ON switch): -1; higher = weaker reporter binding
Outline: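 Three titration conditions were used: no input, 200 uM small-molecule ligand, and an oligonucleotide input. In each, SNAP-549-labelled MS2 coat protein was raised from 0.7 or 1.5 nM, doubling, to 3 µM over designed RNA switches transcribed on Illumina chips by stalled E. coli RNA polymerase. Curve fits of normalised cluster fluorescence gave values whose per-design median over clusters is the apparent KD.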

[1] = Eterna round: R95, input ligand: FMN 200 uM
[2] = Eterna round: R95, input ligand: microRNA oligo, concentration not stated
[3] = Eterna round: R95, input ligand: none

Row | Sequence | apparent KD of MS2 coat protein [1] | apparent KD of MS2 coat protein [2] | apparent KD of MS2 coat protein [3] | apparent KD of MS2 coat protein (input ligand: FMN 200 uM) | apparent KD of MS2 coat protein (input ligand: none) | apparent KD of MS2 coat protein (input ligand: microRNA oligo, concentration not stated)
1 | AGUACUUUCACGAAAGUGAAAGUACAAUAAGCUUGUGGAACAUGAGGAUCACCCAUGUCCUCAUAAGCUCGUCUUAU [Mat - Sensor v3 - Turn-off var 2 - D32] (puzzle: Sensor v3, turn-off variant 2) | 17.3 nM | 72.5 nM | 15.5 nM | – | – | –
2 | AGUAGAUCUACGCUUGCGUGGAUCUGCAAAGCAGGUGUUACAUGAGGAUCACCCAUGUCCUCAUUUGCUCGUCUUAG [JL turnoff v2 99.08] (puzzle: Sensor v3, turn-off variant 2) | 71.8 nM | 563 nM | 65.1 nM | – | – | –
3 | AGUAGAUCUACGCUUGCGUGGAUCUGCAAUGCAAGUGUUACAUGAGGAUCACCCAUGUCCUCAUUUGCUCGUCUUAU [JL turnoff v2 99.04] (puzzle: Sensor v3, turn-off variant 2) | 42.2 nM | 108 nM | 40.9 nM | – | – | –
4 | AGUAGAUCUACGCUUGCGUGGAUCUGCAAUGUAGGUGUUACAUGAGGAUCACCCAUGUCCUCAUUUGCUCGUCUUAG [JL turnoff v2 99.10] (puzzle: Sensor v3, turn-off variant 2) | 259 nM | 810 nM | – | – | – | –
5 | AGUAGGUCUACCUUGGUGGAUCUGCAUUAUGCAAGUGAUACAUGAGGAUCACCCAUGUCCUCAUUUGCUCGUCUUAU [JL turnoff v2 99.24] (puzzle: Sensor v3, turn-off variant 2) | 17.3 nM | 242 nM | 16.1 nM | – | – | –
6 | AGUAGGUCUACCUUGGUGGAUCUGCAUUAUGCAAGUGUUACAUGAGGAUCACCCAUGUCCUCAUUUGCUCGUCUUAU [JL turnoff v2 99.23] (puzzle: Sensor v3, turn-off variant 2) | 37.1 nM | 130 nM | 36.2 nM | – | – | –
7 | AGUAGUAGUAUCCGAUCCUACAUGAGGAUCACCCAUGUAGCUAGACGUGCACGCGAUGCGCGUCAGACUACCAGAUG [salish99_TOv1_r3_042] (puzzle: Sensor v3, turn-off variant 1) | 184 nM | 159 nM | 240 nM | – | – | –
8 | AGUAGUAGUAUCCGAUCCUACAUGAGGAUCACCCAUGUAGCUAGACGUGCGCGCGAUGCUCGUCAGACUACCAGAUG [salish99_TOv1_r3_047] (puzzle: Sensor v3, turn-off variant 1) | 159 nM | 198 nM | 276 nM | – | – | –
9 | AGUAGUAGUAUCCGAUCCUACAUGAGGAUCACCCAUGUAGGUAGACGUGCACGCGAUGCUCGUCAGACUACCAGAUG [salish99_TOv1_r3_039] (puzzle: Sensor v3, turn-off variant 1) | 12.1 nM | 11.4 nM | 13.4 nM | – | – | –
10 | AGUAGUGGUAUCCGAUCCUACAUGAGGAUCACCCAUGUAGCUAGACGUGCACGCGAUGCUCGUCAGACUACCAGAUG [salish99_TOv1_r3_048] (puzzle: Sensor v3, turn-off variant 1) | 218 nM | 221 nM | 184 nM | – | – | –
11 | AGUAGUUCAGGAUAUGAUGUUAAGUACAUGAGGAUCACCCAUGUAGGUCCUGGAUUUACAUCAGAAGGGAAUAACU [JR_Ex5_Sub083] (Eterna round: R97, puzzle: Exclusion 5) | – | – | – | 60.4 nM | 23.6 nM | –
12 | AGUCAGGCGGUAGGAUAUCCAAACCGAGUGACCCUUUCAUAACAUGAGGAUCACCCAUGUCGGUGGGAGAAGGGCCGUAAGGCA [Mat - Exclusion NG 2 - Mod of JL - D66] (Eterna round: R96, puzzle: Exclusion NG 2) | – | – | – | 127 nM | 56.6 nM | 52.8 nM
